# Experimental data: the RNAGym collection of RNA variant scans (doi:10.1101/gr.219683.116)
# B1: mRNA-splicing (parent)
# chain: AGUUGCUGCUGGGAGCUCCAGCACAGUGAAAUGGACAGAAGGGCAGAGCAA
# Variants of: B1
# Experiment: exon inclusion enrichment index; higher = more inclusion; WT1 exon 5 minigene, HEK293
row,Variant,exon inclusion enrichment index
1,AGUUCACACAGGGAGCUCCACGACAGUGAAAUGGACAGAAGGGCAGAGCAA [G5C C6A U7C G8A U10A G21C C22G],0.322
2,AGUUCACACAGGGAGCUCCACUACAGUGAAAUGGACAGAAGGGCAGAGCAA [G5C C6A U7C G8A U10A G21C C22U],0.105
3,AGUUCACACAGGGAGCUCCACAACAGUGAAAUGGACAGAAGGGCAGAGCAA [G5C C6A U7C G8A U10A G21C C22A],0.0674
4,AGUUCACACACUGAGCUCCAGCACAGUGAAAUGGACAGAAGGGCAGAGCAA [G5C C6A U7C G8A U10A G11C G12U],0.0425
5,AGUUCACACACCGAGCUCCAGCACAGUGAAAUGGACAGAAGGGCAGAGCAA [G5C C6A U7C G8A U10A G11C G12C],0.382
6,AGUUCACACACAGAGCUCCAGCACAGUGAAAUGGACAGAAGGGCAGAGCAA [G5C C6A U7C G8A U10A G11C G12A],0.0929
7,AGUUCACACAGGUUGCUCCAGCACAGUGAAAUGGACAGAAGGGCAGAGCAA [G5C C6A U7C G8A U10A G13U A14U],0.0352
8,AGUUCACACAGGUGGCUCCAGCACAGUGAAAUGGACAGAAGGGCAGAGCAA [G5C C6A U7C G8A U10A G13U A14G],0.0515
9,AGUUCACACAGGUCGCUCCAGCACAGUGAAAUGGACAGAAGGGCAGAGCAA [G5C C6A U7C G8A U10A G13U A14C],0.0603
10,AGUUCACACAGGGAGCUCCAAAACAGUGAAAUGGACAGAAGGGCAGAGCAA [G5C C6A U7C G8A U10A G21A C22A],0.0529
11,AGUUCACACAGGGAGCUCCAAUACAGUGAAAUGGACAGAAGGGCAGAGCAA [G5C C6A U7C G8A U10A G21A C22U],0.0694
12,AGUUCACACAGGGAGCUCCAAGACAGUGAAAUGGACAGAAGGGCAGAGCAA [G5C C6A U7C G8A U10A G21A C22G],0.156
13,AGUUCACACAACGAGCUCCAGCACAGUGAAAUGGACAGAAGGGCAGAGCAA [G5C C6A U7C G8A U10A G11A G12C],0.495
14,AGUUCACACAAAGAGCUCCAGCACAGUGAAAUGGACAGAAGGGCAGAGCAA [G5C C6A U7C G8A U10A G11A G12A],0.202
15,AGUUCACACAAUGAGCUCCAGCACAGUGAAAUGGACAGAAGGGCAGAGCAA [G5C C6A U7C G8A U10A G11A G12U],0.0692
16,AGUUCACACAGAUAGCUCCAGCACAGUGAAAUGGACAGAAGGGCAGAGCAA [G5C C6A U7C G8A U10A G12A G13U],0.016
17,AGUUCACACAGACAGCUCCAGCACAGUGAAAUGGACAGAAGGGCAGAGCAA [G5C C6A U7C G8A U10A G12A G13C],0.0982
18,AGUUCACACAGAAAGCUCCAGCACAGUGAAAUGGACAGAAGGGCAGAGCAA [G5C C6A U7C G8A U10A G12A G13A],0.114
19,AGUUCACACAGGGAGCUCCAGCACAGUGAAAUGGACAGAAGGGGCGAGCAA [G5C C6A U7C G8A U10A C44G A45C],0.204
20,AGUUCACACAGGGAGCUCCAGCACAGUGAAAUGGACAGAAGGGGUGAGCAA [G5C C6A U7C G8A U10A C44G A45U],0.109
21,AGUUCACACAGGGAGCUCCAGCACAGUGAAAUGGACAGAAGGGGGGAGCAA [G5C C6A U7C G8A U10A C44G A45G],0.00762
22,AGUUCACACAGGGAACUCCAGCACAGUGAAAUGGACAGAAGGGCAGAGCAA [G5C C6A U7C G8A U10A G15A],0.0449
23,AGUUCACACAGGGACCUCCAGCACAGUGAAAUGGACAGAAGGGCAGAGCAA [G5C C6A U7C G8A U10A G15C],0.0588
24,AGUUCACACAGGGAUCUCCAGCACAGUGAAAUGGACAGAAGGGCAGAGCAA [G5C C6A U7C G8A U10A G15U],0.098
25,AGUUCACACAGGGAAGUCCAGCACAGUGAAAUGGACAGAAGGGCAGAGCAA [G5C C6A U7C G8A U10A G15A C16G],0.0227
26,AGUUCACACAGGGAAUUCCAGCACAGUGAAAUGGACAGAAGGGCAGAGCAA [G5C C6A U7C G8A U10A G15A C16U],0.0227

row,Variant,exon inclusion enrichment index
1,AGUUCACACAGGGAAAUCCAGCACAGUGAAAUGGACAGAAGGGCAGAGCAA [G5C C6A U7C G8A U10A G15A C16A],0.00997
2,AGUUCACACAGGGAGCUCCAUAACAGUGAAAUGGACAGAAGGGCAGAGCAA [G5C C6A U7C G8A U10A G21U C22A],0.0315
3,AGUUCACACAGGGAGCUCCAUGACAGUGAAAUGGACAGAAGGGCAGAGCAA [G5C C6A U7C G8A U10A G21U C22G],0.113
4,AGUUCACACAGGGAGCUCCAUUACAGUGAAAUGGACAGAAGGGCAGAGCAA [G5C C6A U7C G8A U10A G21U C22U],0.011
5,AGUUCACACAUUGAGCUCCAGCACAGUGAAAUGGACAGAAGGGCAGAGCAA [G5C C6A U7C G8A U10A G11U G12U],0.037
6,AGUUCACACAUCGAGCUCCAGCACAGUGAAAUGGACAGAAGGGCAGAGCAA [G5C C6A U7C G8A U10A G11U G12C],0.543
7,AGUUCACACAUAGAGCUCCAGCACAGUGAAAUGGACAGAAGGGCAGAGCAA [G5C C6A U7C G8A U10A G11U G12A],0.0375
8,AGUUCACACAGGGAGCUCCAUCACAGUGAAAUGGACAGAAGGGCAGAGCAA [G5C C6A U7C G8A U10A G21U],0.0631
9,AGUUCACACAGGGAGCUCCAACACAGUGAAAUGGACAGAAGGGCAGAGCAA [G5C C6A U7C G8A U10A G21A],0.0465
10,AGUUCACACAGGGAGCUCCACCACAGUGAAAUGGACAGAAGGGCAGAGCAA [G5C C6A U7C G8A U10A G21C],0.0715
11,AGUUCACACAGGAUGCUCCAGCACAGUGAAAUGGACAGAAGGGCAGAGCAA [G5C C6A U7C G8A U10A G13A A14U],0.645
12,AGUUCACACAGGACGCUCCAGCACAGUGAAAUGGACAGAAGGGCAGAGCAA [G5C C6A U7C G8A U10A G13A A14C],0.899
13,AGUUCACACAGGAGGCUCCAGCACAGUGAAAUGGACAGAAGGGCAGAGCAA [G5C C6A U7C G8A U10A G13A A14G],0.424
14,AGUUCACACAGCUAGCUCCAGCACAGUGAAAUGGACAGAAGGGCAGAGCAA [G5C C6A U7C G8A U10A G12C G13U],0.0133
15,AGUUCACACAGCCAGCUCCAGCACAGUGAAAUGGACAGAAGGGCAGAGCAA [G5C C6A U7C G8A U10A G12C G13C],0.0502
16,AGUUCACACAGCAAGCUCCAGCACAGUGAAAUGGACAGAAGGGCAGAGCAA [G5C C6A U7C G8A U10A G12C G13A],0.181
17,AGUUCACACAGGGAGCUCCAGCACAGUGAAAUGGACAGAAGGGACGAGCAA [G5C C6A U7C G8A U10A C44A A45C],0.385
18,AGUUCACACAGGGAGCUCCAGCACAGUGAAAUGGACAGAAGGGAGGAGCAA [G5C C6A U7C G8A U10A C44A A45G],0.213
19,AGUUCACACAGGGAGCUCCAGCACAGUGAAAUGGACAGAAGGGAUGAGCAA [G5C C6A U7C G8A U10A C44A A45U],0.339
20,AGUUCACACAGGGAGCUCCAGCAGGGUGAAAUGGACAGAAGGGCAGAGCAA [G5C C6A U7C G8A U10A C24G A25G],0.034
21,AGUUCACACAGGGAGCUCCAGCAGUGUGAAAUGGACAGAAGGGCAGAGCAA [G5C C6A U7C G8A U10A C24G A25U],0.184
22,AGUUCACACAGGGAGCUCCAGCAGCGUGAAAUGGACAGAAGGGCAGAGCAA [G5C C6A U7C G8A U10A C24G A25C],0.71
23,AGUUCACACAGGGAGCUCCAGCACAGUGAAAUGGACAGAAGGGUGGAGCAA [G5C C6A U7C G8A U10A C44U A45G],0.0445
24,AGUUCACACAGGGAGCUCCAGCACAGUGAAAUGGACAGAAGGGUCGAGCAA [G5C C6A U7C G8A U10A C44U A45C],0.252
25,AGUUCACACAGGGAGCUCCAGCACAGUGAAAUGGACAGAAGGGUUGAGCAA [G5C C6A U7C G8A U10A C44U A45U],0.0623
